Laboratory results taken from patent US20190010233A1.
Where “and” joins values, the source holds several entries; their conditions need not be identical. Identical values can stand only once.

How the values were obtained:
[1] = target: cyno PD-L1^ECD-hFc protein (cyno) (UniProt G7PSE7); assay: ELISA, 3 nM mAb
[2] = target: human PD-L1^ECD-hFc protein (human) (UniProt Q9NZQ7); assay: ELISA, 10 nM mAb
[3] = target: cyno PD-L1^ECD-hFc protein (cyno) (UniProt G7PSE7); assay: ELISA, 10 nM mAb
[4] = target: human PD-L1^ECD-hFc protein (human) (UniProt Q9NZQ7); assay: ELISA, 10 nM mAb; remark: listed apart in the source
[5] = target: cyno PD-L1^ECD-hFc protein (cyno) (UniProt G7PSE7); assay: ELISA, 30 nM mAb
[6] = target: human PD-L1^ECD-hFc protein (human) (UniProt Q9NZQ7); assay: ELISA, 30 nM mAb
[7] = target: cyno PD-L1^ECD-hFc protein (cyno) (UniProt G7PSE7); assay: ELISA, 10 nM mAb; remark: listed apart in the source
[8] = target: cyno PD-L1^ECD-hFc protein (cyno) (UniProt G7PSE7); assay: ELISA, 0.1 nM mAb
[9] = target: human PD-L1^ECD-hFc protein (human) (UniProt Q9NZQ7); assay: ELISA, 0.1 nM mAb
[10] = target: cyno PD-L1^ECD-hFc protein (cyno) (UniProt G7PSE7); assay: ELISA, 0.01 nM mAb
[11] = target: human PD-L1^ECD-hFc protein (human) (UniProt Q9NZQ7); assay: ELISA, 0.01 nM mAb
[12] = target: cyno PD-L1^ECD-hFc protein (cyno) (UniProt G7PSE7); assay: ELISA, 0.041 nM mAb
[13] = target: human PD-L1^ECD-hFc protein (human) (UniProt Q9NZQ7); assay: ELISA, 0.041 nM mAb
[14] = target: cyno PD-L1^ECD-hFc protein (cyno) (UniProt G7PSE7); assay: ELISA, 0.123 nM mAb
[15] = target: human PD-L1^ECD-hFc protein (human) (UniProt Q9NZQ7); assay: ELISA, 0.123 nM mAb
[16] = target: cyno PD-L1^ECD-hFc protein (cyno) (UniProt G7PSE7); assay: ELISA, 0.370 nM mAb
[17] = target: human PD-L1^ECD-hFc protein (human) (UniProt Q9NZQ7); assay: ELISA, 0.370 nM mAb
[18] = target: cyno PD-L1^ECD-hFc protein (cyno) (UniProt G7PSE7); assay: ELISA, 3.333 nM mAb
[19] = target: human PD-L1^ECD-hFc protein (human) (UniProt Q9NZQ7); assay: ELISA, 3.333 nM mAb
[20] = target: cyno PD-L1^ECD-hFc protein (cyno) (UniProt G7PSE7); assay: ELISA, 0.0001 nM mAb
[21] = target: human PD-L1^ECD-hFc protein (human) (UniProt Q9NZQ7); assay: ELISA, 0.0001 nM mAb
[22] = target: cyno PD-L1^ECD-hFc protein (cyno) (UniProt G7PSE7); assay: ELISA, 0.00003 nM mAb
[23] = target: human PD-L1^ECD-hFc protein (human) (UniProt Q9NZQ7); assay: ELISA, 0.00003 nM mAb
[24] = target: full length human PD-L1 on cells (human) (UniProt Q9NZQ7); assay: FACS CHOK1-hPD-L1, 3 nM mAb
[25] = target: full length cyno PD-L1 on cells (cyno) (UniProt G7PSE7); assay: FACS CHO-K1-cPD-L1, 1 nM mAb
[26] = target: full length human PD-L1 on cells (human) (UniProt Q9NZQ7); assay: FACS CHOK1-hPD-L1, 30 nM mAb
[27] = target: full length cyno PD-L1 on cells (cyno) (UniProt G7PSE7); assay: FACS CHO-K1-cPD-L1, 10 nM mAb
[28] = target: full length human PD-L1 on cells (human) (UniProt Q9NZQ7); assay: FACS CHO-K1-hPD-L1, 0.1 nM mAb
[29] = target: full length human PD-L1 on cells (human) (UniProt Q9NZQ7); assay: FACS CHOK1-hPD-L1, 0.03 nM mAb
[30] = target: full length cyno PD-L1 on cells (cyno) (UniProt G7PSE7); assay: FACS CHO-K1-cPD-L1, 300 nM mAb
[31] = target: full length cyno PD-L1 on cells (cyno) (UniProt G7PSE7); assay: FACS CHO-K1-cPD-L1, 0.41 nM mAb
[32] = target: full length cyno PD-L1 on cells (cyno) (UniProt G7PSE7); assay: FACS CHO-K1-cPD-L1, 1.23 nM mAb
[33] = target: full length cyno PD-L1 on cells (cyno) (UniProt G7PSE7); assay: FACS CHO-K1-cPD-L1, 3.70 nM mAb
[34] = target: full length cyno PD-L1 on cells (cyno) (UniProt G7PSE7); assay: FACS CHO-K1-cPD-L1, 0.03 nM mAb
[35] = target: full length cyno PD-L1 on cells (cyno) (UniProt G7PSE7); assay: FACS CHO-K1-cPD-L1, 0.001 nM mAb
[36] = target: full length cyno PD-L1 on cells (cyno) (UniProt G7PSE7); assay: FACS CHO-K1-cPD-L1, 11.11 nM mAb
[37] = target: full length human PD-L1 on cells (human) (UniProt Q9NZQ7); assay: FACS CHO-K1-hPD-L1, 100.00 nM mAb
[38] = target: full length cyno PD-L1 on cells (cyno) (UniProt G7PSE7); assay: FACS CHO-K1-cPD-L1, 100.00 nM mAb
[39] = target: full length cyno PD-L1 on cells (cyno) (UniProt G7PSE7); assay: FACS CHO-K1-cPD-L1, 0.0003 nM mAb
[40] = target: full length cyno PD-L1 on cells (cyno) (UniProt G7PSE7); assay: FACS CHO-K1-cPD-L1, 0.001 nM mAb as printed (second such column)

Chain of full length cyno PD-L1 on cells (cyno) (G7PSE7 entry or part of it limits assumed): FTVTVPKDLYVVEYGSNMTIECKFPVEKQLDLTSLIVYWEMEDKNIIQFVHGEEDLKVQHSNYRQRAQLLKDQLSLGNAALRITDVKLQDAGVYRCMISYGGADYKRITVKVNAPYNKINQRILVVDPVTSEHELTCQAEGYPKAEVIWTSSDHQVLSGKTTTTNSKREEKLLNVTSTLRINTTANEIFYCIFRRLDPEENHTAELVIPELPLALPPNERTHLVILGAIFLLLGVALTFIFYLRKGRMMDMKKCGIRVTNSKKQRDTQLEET
Chain of human PD-L1^ECD-hFc protein (human) (Q9NZQ7 19-239): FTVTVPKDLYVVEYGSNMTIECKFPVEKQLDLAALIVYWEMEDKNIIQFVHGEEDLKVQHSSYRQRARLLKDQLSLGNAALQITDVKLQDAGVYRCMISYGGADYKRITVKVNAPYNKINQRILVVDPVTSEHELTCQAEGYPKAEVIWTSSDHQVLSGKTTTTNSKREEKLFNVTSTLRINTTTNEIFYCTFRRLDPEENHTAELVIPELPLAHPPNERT
Chain of full length human PD-L1 on cells (human) (Q9NZQ7 19-290 limits assumed): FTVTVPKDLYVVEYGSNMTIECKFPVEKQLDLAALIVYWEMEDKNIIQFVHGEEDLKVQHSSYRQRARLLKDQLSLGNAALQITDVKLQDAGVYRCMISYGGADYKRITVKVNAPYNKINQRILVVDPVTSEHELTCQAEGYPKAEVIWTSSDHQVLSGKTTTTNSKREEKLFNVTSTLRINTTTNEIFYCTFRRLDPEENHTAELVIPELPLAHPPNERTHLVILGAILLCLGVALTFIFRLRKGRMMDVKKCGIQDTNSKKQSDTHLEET
Chain of cyno PD-L1^ECD-hFc protein (cyno) (G7PSE7 entry or part of it limits assumed): as the sequence (Q9NZQ7 19-239) above, with A33T, A34S, S62N, R68Q, Q82R, F173L, T185A, T192I, H215L counted along it

## IgG control (human IgG) (antibody)
[1]
  OD450 nm: 0.282
[2]
  OD450 nm: 0.15
[3]
  OD450 nm: 0.15
[4]
  OD450 nm: 0.225
[5]
  OD450 nm: 0.12
[6]
  OD450 nm: 0.315
[7]
  OD450 nm: 0.134
[8]
  OD450 nm: 0.0967
[9]
  OD450 nm: 0.149
[10]
  OD450 nm: 0.0987
[11]
  OD450 nm: 0.154
[12]
  OD450 nm: 0.11
[13]
  OD450 nm: 0.11
[14]
  OD450 nm: 0.11
[15]
  OD450 nm: 0.11
[16]
  OD450 nm: 0.12
[17]
  OD450 nm: 0.12
[18]
  OD450 nm: 0.11
[19]
  OD450 nm: 0.11
[20]
  OD450 nm: 0.0988
[21]
  OD450 nm: 0.162
[22]
  OD450 nm: 0.31
[23]
  OD450 nm: 0.296
[24]
  Mean fluorescence intensity: 3.56
[25]
  Mean fluorescence intensity: 1.83
[26]
  Mean fluorescence intensity: 5.73
[27]
  Mean fluorescence intensity: 1.95
[28]
  Mean fluorescence intensity: 2.55
[29]
  Mean fluorescence intensity: 2.92
[30]
  Mean fluorescence intensity: 15.6
[31]
  Mean fluorescence intensity: 2.69
[32]
  Mean fluorescence intensity: 2.82
[33]
  Mean fluorescence intensity: 2.73
[34]
  Mean fluorescence intensity: 3.79
[35]
  Mean fluorescence intensity: 1.9
[36]
  Mean fluorescence intensity: 2.93
[37]
  Mean fluorescence intensity: 2.7
[38]
  Mean fluorescence intensity: 3.33 and 8.11
[39]
  Mean fluorescence intensity: 3.76
[40]
  Mean fluorescence intensity: 7.33
